Literature values in article PMC7866529.
Where two headings read alike, the source gives them in different places.

Legend:
S100B (Homo sapiens) [1] = target: S100B (Homo sapiens) (UniProt P04271)
S100B (Homo sapiens) [2] = target: S100B (Homo sapiens) (UniProt P04271); remark: listed apart in the source

Row | Substance | Kd (S100B (Homo sapiens) [1]) [nM] | Kd (S100B (Homo sapiens) [2]) [nM]
1 | TRTK12 | 260 | 
2 | S100B (from UniProt P04271) |  | < 0.5
